According to patent US20250277037A1 (UNIVERSITY OF UTAH RESEARCH FOUNDATION, published 2025):

T1: mouse FcγRIV on RAW 264.7 macrophage cells (mouse, UniProt A0A0B4J1G0 21-249)
T1 construct: also called RAW 264.7 cells
T1 sequence: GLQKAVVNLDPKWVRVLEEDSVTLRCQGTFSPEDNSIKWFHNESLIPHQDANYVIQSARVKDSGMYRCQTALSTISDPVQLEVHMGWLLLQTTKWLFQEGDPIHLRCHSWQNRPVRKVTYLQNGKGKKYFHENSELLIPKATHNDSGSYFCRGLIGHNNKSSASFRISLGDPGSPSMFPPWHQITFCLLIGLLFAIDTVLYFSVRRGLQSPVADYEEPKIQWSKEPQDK

B1: D-αPD-1 (depleting anti-mouse PD-1 antibody; RMP1-14 variable domains on mouse IgG2a heavy and mouse κ light constant domains) (antibody)
heavy: EVQLQESGPGLVKPSQSLSLTCSVTGYSITSSYRWNWIRKFPGNRLEWMGYINSAGISNYNPSLKRRISITRDTSKNQFFLQVNSVTTEDAATYYCARSDNMGTTPFTYWGQGTLVTVSSAKTTAPSVYPLAPVCGDTTGSSVTLGCLVKGYFPEPVTLTWNSGSLSSGVHTFPAVLQSDLYTLSSSVTVTSSTWPSQSITCNVAHPASSTKVDKKIEPRGPTIKPCPPCKCPAPNLLGGPSVFIFPPKIKDVLMISLSPIVTCVVVDVSEDDPDVQISWFVNNVEVHTAQTQTHREDYNSTLRVVSALPIQHQDWMSGKEFKCKVNNKDLPAPIERTISKPKGSVRAPQVYVLPPPEEEMTKKQVTLTCMVTDFMPEDIYVEWTNNGKTELNYKNTEPVLDSDGSYFMYSKLRVEKKNWVERNSYSCSVVHEGLHNHHTTKSFSRTPGK
light: DIVMTQGTLPNPVPSGESVSITCRSSKSLLYSDGKTYLNWYLQRPGQSPQLLIYWMSTRASGVSDRFSGSGSGTDFTLKISGVEAEDVGIYYCQQGLEFPTFGGGTKLELKRADAAPTVSIFPPSSEQLTSGGASVVCFLNNFYPKDINVKWKIDGSERQNGVLNSWTDQDSKDSTYSMSSTLTLTKDEYERHNSYTCEATHKTSTSPIVKSFNRNEC
notes: also called anti-αPD-1 antibody; anti-PD-1 antibody 1

Columns and labels:
[1] = molecular target: mouse FcγRIV on RAW 264.7 macrophage cells (mouse); test: competition by flow cytometry on RAW 264.7 cells: preincubation with the antibody at 4 °C for 30 min, then staining with PE anti-mouse FcγRIV (clone 9E9); inhibition relative to cells without antibody
[2] = molecular target: mouse FcγRIV on RAW 264.7 macrophage cells (mouse); test: competition, flow cytometry on RAW 264.7 cells; 25 and 250 µg/mL, not concentration-dependent; competitor PE anti-mouse FcγRIV (9E9)
[3] = molecular target: mouse PD-1 (programmed death-1, CD279) on EL4 cells (mouse) (UniProt Q02242); test: flow cytometry on PD-1+ EL4 cells, incubation on ice (4 °C) for 30 min, detection with PE anti-mouse IgG2a; medium control without antibody given as 70.0
mouse PD-1 (programmed death-1, CD279) on EL4 cells (mouse), sequence (Q02242 25-288): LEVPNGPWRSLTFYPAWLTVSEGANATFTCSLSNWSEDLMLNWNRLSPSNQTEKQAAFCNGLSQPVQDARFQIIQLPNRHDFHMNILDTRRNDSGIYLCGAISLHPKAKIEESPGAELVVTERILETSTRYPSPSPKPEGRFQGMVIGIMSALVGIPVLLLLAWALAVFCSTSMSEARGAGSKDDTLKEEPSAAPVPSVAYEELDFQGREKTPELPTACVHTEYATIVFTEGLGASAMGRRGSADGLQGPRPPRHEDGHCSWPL

[4] = molecular target: mouse FcγRIV on RAW 264.7 macrophage cells (mouse); test: flow cytometry, Alexa-647-labelled antibody at 4 µg/mL on RAW 264.7 cells, 4 °C 30 min (medium control 188.3)
[5] = molecular target: T1, mouse FcγRIV on RAW 264.7 macrophage …; test: flow cytometry, Alexa-647-labelled antibody at 4 µg/mL on RAW 264.7 cells, 4 °C 30 min; reference: cells in the medium control
Experimental: ADCP was the next mechanism that was investigated. Before evaluating D-αPD-1-mediated ADCP by macrophages, the binding between D-αPD-1 and macrophages was investigated since the binding is the prerequisite of ADCP. Here, RAW 264.7 cells were incubated with Alexa-647-labeled D-αPD-1, isotype control, or the medium control. Then, the bound antibodies were analyzed by flow cytometry (FIG. 5A).

Molecule	Inhibition (%) at 25 µg/mL [1]	Inhibition (%) at 250 µg/mL [1]	percent inhibition of anti-mouse FcγRIV antibody binding [2]	also measured
goat IgG control (antibody)	4%	4.3%	10%	
mouse IgG2a isotype control (antibody)				MFI at 0.1 µg/mL [3]: 95.4; MFI at 1 µg/mL [3]: 125; MFI at 10 µg/mL [3]: 433; MFI [4]: 213 MFI
B-αPD-1 (anti-mouse PD-1 blocking antibody, clone RMP1-14, a rat IgG)	10.5%	6.7%	10%	
B1				fold MFI over medium control [5]: ~3 fold
